The data set has as its target T1, FAM-tat peptide (UniProt P04608, also: FAM label, position not given here).
T1 chain: AAARKKRRQRRRAAA
In words: SPR.

One molecule from paper PMC9262588 can be followed below.

The Kd is a measure of binding affinity in units of concentration.

No end group written: not given here.

For GGCAGAUCUGAGCCUGGGAGCUCUCUGCC (structured_RNA) [biotin-TAR RNA], the Kd is 380 nM.
